Measured values taken from the supplement of paper PMC10126150.
± gives the standard deviation of the averaged measurements.

These sequences were tested on ATP (assay: switch fluorescence ratio, 500 uM ATP over buffer (Cy3 cluster intensity, sum of 5 cycles each) (fold (ratio)); higher = stronger signal-on switching upon ATP binding; sequences stand for … in TCGTCGGCAGCGTCAGATGTGTATAAGAGACAGTTTTTTTTTTTTTTTTTTTTTTTTT…TC). Conditions: aptamer strand: ATP DNA aptamer (quencher-CACCTGGGGGAGTATTGCGGAGGAAGG + anchor), 100 nM annealed; ATP concentration: 500 uM.
Method in brief: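 Cy3-labelled switching-strand clusters on a modified Illumina MiSeq flow-cell were annealed to 100 nM quencher-labelled ATP aptamer, imaged in selection buffer, then imaged after 15 min with 500 uM ATP at 22 °C. Five buffer/ATP cycles ran, with NaOH stripping and re-annealing between them. The fluorescence ratio is summed target-cycle over summed buffer-cycle Cy3 intensity per cluster, averaged per switch-domain sequence. Clusters outside 100-1000 RFU were excluded.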
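Further: ATP exposure 15 min at 22 °C before imaging.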

Sequence | switch fluorescence ratio
CGGTCAGTAA | 1.03 ± 0.022
CGGTCATCTT | 0.9991 ± 0.0047
CGGTCCAGTA | 0.912 ± 0.048
CGGTCCCATT | 0.992 ± 0.047
CGGTCCGGTG | 1.04 ± 0.026
CGGTCCTGAA | 1.03 ± 0.002
CGGTCGAGGA | 0.988 ± 0.021
CGGTCGCTGG | 0.991 ± 0.026
CGGTCGTTGT | 1.02 ± 0.03
CGGTGAAAAT | 0.97 ± 0.027
CGGTGAATAT | 0.9712 ± 0.0087
CGGTGCACGG | 1.05 ± 0.027
CGGTGGATCA | 0.992 ± 0.017
CGGTGGGATG | 0.9784 ± 0.0072
CGGTGGGCCG | 1.05 ± 0.025
CGGTGGTTTG | 0.996 ± 0.026
CGGTGTAGCC | 1.02 ± 0.014
CGGTGTATTC | 0.988 ± 0.011
CGGTGTGAGG | 0.988 ± 0.031
CGGTGTGCCT | 0.966 ± 0.029
CGGTGTGTGC | 1.04 ± 0.026
CGGTGTTGTG | 0.986 ± 0.024

Sequence | switch fluorescence ratio
CGGTTACCTG | 0.9708 ± 0.0074
CGGTTAGTTC | 0.946 ± 0.023
CGGTTATTTA | 1.04 ± 0.011
CGGTTCGCGA | 1.03 ± 0.019
CGGTTCGTGG | 1.004 ± 0.0068
CGGTTGCATT | 1.04 ± 0.031
CGGTTGCGTT | 0.987 ± 0.035
CGGTTGCTAG | 0.997 ± 0.042
CGGTTGGAGC | 0.988 ± 0.042
CGGTTGGGCC | 0.993 ± 0.014
CGGTTGGGGG | 0.962 ± 0.033
CGGTTGGGTT | 0.99659 ± 6.3e-05
CGGTTGTCGA | 1.01 ± 0.023
CGGTTGTGCG | 0.969 ± 0.025
CGGTTTATGG | 0.943 ± 0.022
CGGTTTGACA | 0.9954 ± 0.0092
CGGTTTGCGT | 0.9748 ± 0.0029
CGGTTTGTCT | 0.986 ± 0.018
CGGTTTTGCG | 0.985 ± 0.024
CGGTTTTGGG | 0.977 ± 0.012
CGGTTTTTGC | 1.03 ± 0.058
CGGTTTTTTG | 0.964 ± 0.014

Sequence | switch fluorescence ratio
CGTAAAGGCC | 0.9465 ± 0.0012
CGTAAAGTAG | 1.01 ± 0.022
CGTAATATTA | 1.07 ± 0.01
CGTACAAAAG | 0.998 ± 0.03
CGTACGGCTC | 1.058 ± 0.0038
CGTACTAGAT | 0.9959 ± 0.0086
CGTACTGGAG | 1.01 ± 0.056
CGTAGAGGAA | 0.994 ± 0.03
CGTAGAGGGG | 0.9858 ± 0.0073
CGTAGCGTTT | 0.998 ± 0.04
CGTAGGAGGA | 0.98 ± 0.036
CGTAGGGGAA | 0.993 ± 0.02
CGTAGGGTCA | 0.9871 ± 0.0082
CGTAGGGTTA | 1.01 ± 0.025
CGTAGGTAAT | 1.01 ± 0.04
CGTAGTACGC | 1.12 ± 0.04
CGTAGTTTAG | 1.05 ± 0.027
CGTAGTTTAT | 1.07 ± 0.022
CGTAGTTTTG | 1.007 ± 0.0074
CGTATAAAAA | 0.971 ± 0.068
CGTATAGGGA | 1.015 ± 0.01
CGTATAGGTC | 0.999 ± 0.033

Sequence | switch fluorescence ratio
CGTATATGGG | 0.995 ± 0.022
CGTATCATGC | 0.985 ± 0.011
CGTATCCCGT | 0.974 ± 0.014
CGTATGAAGC | 0.972 ± 0.02
CGTATGCAAG | 0.967 ± 0.041
CGTATGTGGT | 0.97 ± 0.019
CGTATTCTGT | 0.9845 ± 0.0037
CGTATTGCGC | 0.971 ± 0.038
CGTATTTTAC | 1.08 ± 0.038
CGTATTTTGC | 1.03 ± 0.066
CGTCAGCGGC | 1.25 ± 0.053
CGTCAGGCAT | 1.17 ± 0.026
CGTCATCAGG | 1.042 ± 0.0069
CGTCATGTCT | 1 ± 0.065
CGTCATTGGG | 0.992 ± 0.045
CGTCCCAGCT | 1.12 ± 0.018
CGTCCGAGGT | 1.3 ± 0.048
CGTCCTGGGC | 1.0441 ± 0.00044
CGTCGCGGCA | 0.989 ± 0.026
